Laboratory results as given in the DeepSol protein solubility set.

Experiment: soluble on expression in E. coli; label from the status in PepcDB or PDB records

| Sequence | soluble on expression in E. coli |
| --- | --- |
| MKLPVREFDAVVIGAGGAGMRAALQISQSGQTCALLSKVFPTRSHTVSAQGGITVALGNTHEDNWEWHMYDTVKGSDYIGDQDAIEYMCKTGPEAILELEHMGLPFSRLDDGRIYQRPFGGQSKNFGGEQAARTAAAADRTGHALLHTLYQQNLKNHTTIFSEWYALDLVKNQDGAVVGCTALCIETGEVVYFKARATVLATGGAGRIYQSTTNAHINTGDGVGMAIRAGVPVQDMEMWQFHPTGIAGAGVLVTEGCRGEGGYLLNKHGERFMERYAPNAKDLAGRDVVARSIMIEIREGRGCDGPWGPHAKLKLDHLGKEVLESRLPGILELSRTFAHVDPVKEPIPVIPTCHYMMGGIPTKVTGQALTVNEKGEDVVVPGLFAVGEIACVSVHGANRLGGNSLLDLVVFGRAAGLHLQESIAEQGALRDASESDVEASLDRLNRWNNNRNGEDPVAIRKALQECMQHNFSVFREGDAMAKGLEQLKVIRERLKNARLDDTSSEFNTQRVECLELDNLMETAYATAVSANFRTESRGAHSRFDFPDRDDENWLCHSLYLPESESMTRRSVNMEPKLRPAFPPKIRTY | soluble |
| MKLPVVESFFSLQGEGKRIGKPSLFLRLGGCNLSCKGFNCKTLLNDEILTGCDSLYAVHPKFKTSWDYYNEPKPLIERLEDLAPNYKDFDFILTGGEPSLYFNNPILISVLEHFYRQKIPLCVESNGSIFFEFSPILKELHFTLSVKLSFSLEEESKRIHLKALQNILNNAKSAHFKFVLESQNAAQSIIEIQSLLKQLSLKNNEIFLMPLGTNNNELDKNLKTLAPLAIKHGFRLSDRLHIRLWDNQKGF | not soluble |
| MKLPYSITVTYDHRTSPHIPFSSHIGKQNSFFSFLSRKKSMYHHITFCSVPATDGRARGQRPTGHFHLFFVVNRLLPRTRSTTKPSCSFAQPVTPRTREGAGVRGHRRRRRGSLSLIPWKTSNDKQKDDKRSLFCYMREIIAVGNFSKYMLLEHHHHHH | not soluble |
| MKLQSYLMGEWREGQGEGVPVRDASTGEVLARVTAEGLPVKEAVAWGREVGGKALLALGFQERGRRLRALAQYLSERKEALYRLYATTGGTRRDAWYDVDGGIGVLYAYSSLARNLPEGNLLPEDDFLPLSKDLSFQGRHVLAPKGGITVQINAFNFPVWGLLEKFAPAFLAGVPTLAKPATPTAHVAEALVRTMLESGLLPEGSLQLLVGSVGDLFDALDHRDSVFFTGSKATADRLRRHPAFLERGALFNAEADSLNPAILGEKATEEELSRLAQEIAQELVIKTGQRCTAIRRVFAPRERLKALLEATRKRLEALRLGDPREEGVDLGPLASLEQKAEVEKAVAALLEAGARVYWRHPGREDGAFFPPTLLLAEDPWPGALHQVEPFGPVATFFPYGSREEAARLAALGGGSLVATLATSDPEEARFYLLALAPYVGRLHLLNARTAASSTGHGSPLPRLLHGGPGRAGGGEELGGLLSVRRHLGRVALQADPWLLSALTGEYAKGAEKPAEVHPFRKAYEDLEVGETLTTHRRTVTEADIALFSALSWDHFYAHTDEIAARESLFGKRVAHGYFVLSAAAGLFVDPAPGPVLANYGLEGLRFLEPVGAGDTLQVRLTVKRKRPRDEKTGVVEWAAEVVNQEGKPVATYTVLTLVARKGALAKGS | soluble |
| MKLSRRSFMKANAVAAAAAAAGLSVPGVARAVVGQQEAIKWDKAPCRFCGTGCGVLVGTQQGRVVACQGDPDAPVNRGLNCIKGYFLPKIMYGKDRLTQPLLRMKNGKYDKEGEFTPITWDQAFDVMEEKFKTALKEKGPESIGMFGSGQWTIWEGYAASKLFKAGFRSNNIDPNARHCMASAVVGFMRTFGMDEPMGCYDDIEQADAFVLWGANMAEMHPILWSRITNRRLSNQNVTVAVLSTYQHRSFELADNGIIFTPQSDLVILNYIANYIIQNNAINQDFFSKHVNLRKGATDIGYGLRPTHPLEKAAKNPGSDASEPMSFEDYKAFVAEYTLEKTAEMTGVPKDQLEQLAQLYADPNKKVISYWTMGFNQHTRGVWANNLVYNLHLLTGKISQPGCGPFSLTGQPSACGTAREVGTFAHRLPADMVVTNEKHRDICEKKWNIPSGTIPAKIGLHAVAQDRALKDGKLNVYWTMCTNNMQAGPNINEERMPGWRDPRNFIIVSDPYPTVSALAADLILPTAMWVEKEGAYGNAERRTQFWRQQVQAPGEAKSDLWQLVQFSRRFKTEEVWPEDLLAKKPELRGKTLYEVLYATPEVSKFPVSELAEDQLNDESRELGFYLQKGLFEEYAWFGRGHGHDLAPFDDYHKARGLRWPVVNGKETQWRYSEGNDPYVKAGEGYKFYGKPDGKAVIFALPFEPAAEAPDEEYDLWLSTGRVLEHWHTGSMTRRVPELHRAFPEAVLFIHPLDAKARDLRRGDKVKVVSRRGEVISIVETRGRNRPPQGLVYMPFFDAAQLVNKLTLDATDPLSKETDFKKCAVKLEKV | not soluble |
| MKLVPDAFHPGYWGPLLSAHMPRTAYLPVSESFISALQRDSLNEADAERLQSDFSELIQGLSHAMDYLRTDHSTSEGFCPKLNGKLPYDAAWILGRHAPCCYTWNEAMMVLRASSRIHEPTRTSWQGSFCLVVQRWEQIHPANEFRCFISSCRVIAICQRHPDTPYPFLARERDRLVNAMVSFYETHVRPLHPAYAECILDCYLDDSQSVRTLGIDAWSDDALLLFEVSEMEALRAQAAAAFPGQHSDPDGHRQSEAPGEDATGATVSFRSVAQGFAAVPWGWSEKLPLELGDDFLRARIQRNASD | not soluble |
| MKMKKKKRKMFDVFEHVLNQIVGNGVLLLRRIVIDRSKQHKHFHLIMTYKCIFVVAQHTLVDRLESDNNGEQKFQKLCFI | not soluble |
| MKMKTDDTFNHAHADRLLLPNASLLGEVENMLADGRSVMLKATGNSMLPFIVGGRDSVLVRRPSGIQALQVWQIALAHLPDSRYVLHRIVRIHGAEIVLMGDGNLKETESCRFPDITGVVTRIIRNGRYVDCDAGGERCKAKIWGRLLPIRRYLLYIYRRVWI | not soluble |
| MKMNNTKEYSIRTPSLGNLPPGTTGTCCPPPLVFPLLPLSPPPSPPPSPSSPPRLPPPFPALFPPEPPLPPRFELPPPLFPPPPLPRLPPPLLPPPEEPPREPPPPPPPPEEPPPPASCLRTKSPENGIVSTVK | not soluble |
| MKMWQRKTDSSGVIQMDLKKLEGIFEGMLFASGDKVSIEKLSSITGIDKKTVKLVINNMIVKYNNDPSRGITIREINNGYQLCSKPEYYDYIKQLFEPKQRSGLSQAALETLAIIAYNRPITKAKIEQIRGVNSDSAITKLLEKNLIREAGRLDAPGKPVLYETTDEFFRSFGFKSDADLPIFELNDIHETVEINQNSEQEKADTELEKQEKA | not soluble |
| MKNDSFLDKVIGSLLSQNFQVDSNAYTYGLVKGKNDSFSGKVIDGIDVAKSILAIAQIFGSPIDSDCADFKTIFNGEGFKKDLKALYSMTDAVLYKFILGQPLIVGVVKADSLTHNEIYDITDKFDKAILGFRKYTARMKWTKCR | not soluble |
| MKNFVRTTLLAATLAGVSFGAFATAVPNPPLPAQDPIVQHLKLTNDQITRIKKLHQQLETDVSQISMKGIKDGALIEVIKSGKWDDAAVKQQLAAFSNIEQQARYYRVKYYFDLSKVLTPEQRQQVQQDLAQALE | not soluble |
| MKNNADYIEMKVPAQPEYVGIIRLTLSGVASRMGYTYDEIEDLKIAVSEACTNAVQHAYKEDKNGEVSIRFGVFEDRLEVIVADEGDSFDFDQKQQDLGPYTPSHTVDQLSEGGLGLYLMETLMDEVRVQNHSGVTVAMTKYLNGERVDHDTTIKNYETN | soluble |
| MKNVEEQAEREIALSDEMVLQFLQQNPDFFIRNARPVEQMRVPHPVRGTVSLVEWQLARQRNHITQLEEEITLLMEQAGANEVLFNRLLGLQTELASAESLTDMLDRLQRWARQLGLAGAAVRLFSDKWRIGAPSDFTHLGLNRSSFEPLRIQRFGQHNHYLGSLNGPELLLLLPQARQVGSVALSLMGNHHDLGVLIFSSRDSHHYQNGMGTVLLQQMAMMLPAMLARWVERVLEHHHHHH | not soluble |
| MKNYHDIVLALAGVCQSAKLVHQLATESRADSETFLTALNSLFITQPQRIEDVFGGEVRHLKLGLETLIHQLNAQGDQNLTRYWLSLLALEGKLSKNSDAKQTLGNRISRLKEQEIHYARDSETMLSIMANIYSDIISPLGKKIHILGSPDYLRQELVQNKIRAVLLAGIRSAVLWKQMGGTKWQILFFRRKLLATAKQIYSSIY | not soluble |
| MKPANLIHPSVIMSKKYNKMGEGCIICASNIITVNVTLGDHIIVNLDCTIGHDVVINDYVTIYPSVNVSGNCNIGECVELGTGTQVIQGNNIGDRTIVGAGSVVIRNIEGDKVAVGVPTKVIKLEHHHHHH | not soluble |
| MKPLSSAIAAALILFSAQGVAEQTTQPVVTSCANVVVVPPSQEHPPFDLNHMGTGSDKSDALGVPYYNQHAM | soluble |
| MKPTDTSEKALEQLIVRHLAGISEHASVPPNAVQSPGAIYALGGYVLGRATDFNRDVALDTVQLLAFLQATQPDAVETLELAHEGIKRTQFLHRLQGEITKRGVVDVLRKGVSHGPVRVDLYRLLPTPGNTNAAEAFGRNIFSITRQVRYSHDSGNELDLVIFVNGLPVLTFELKNSLTKQTVADAIVQYQSTRSPQELLFQPGRCIAHFAVDDAEVYFCTELKGKASWFLPFNQGWNNGAGNPPNPNGLKTDYLWKQVLAKESLANIIESFAQVVEEQETDATTGRKKKKRKPVFPRFHQLRTVRALLRRTRSDGVGKRYLIQHSAGSGKSNTIAWLAHQLVELRSVADPLMPQFDSIIVITDRRALDTQIARTIKGYDHVASIFGHSDNAQELRDYLRRGRKIIVTTVQKFPFILEEIGDLSGRTFALLIDEAHSSQGGKTTARMHEALSGKTDEEAFEEDATQDAVNTEIEKRIQSRRMLSNASYFAFTATPKNRTLELFGEKTVVDDKVEFRSPEELTYTTKQAIQEGFILDVIAHYTTLDSFYQVAKTVENDPDFDKARALKKIRHYVESHDKAIRRKAEIMVDHFVAQVMGAKKIGGKARAMIVCNGIARAIDYWREVSDYLEQIKSPYKAIVAYSGEFEIGGEKKTEADLNDFPSKEIPDRLRQDPYRFLIVANKFVTGFDEPLLHTMYVDKKLAGVQAVQTLSRLNRAHPQKHDTFVLDFADNAEAVKKAFQDYYRATIQTGETDANKLHDLKADLDDKQIYSWPQVEDLVALYLSGADRDKLDPILDHCVEQYQANLDEDNQVEFKGKAKAFVRSYGFLAAILSYGHPAWEKLSIFLNFLIPKLPAPKEEDLSKGVLESIDIDSYRVEARAALKMAMDDTDATVEVAPVGGGGGKGEPDIDKLSNILKTFNDLFGNIDWKDADKIGKVIAEEIPVRVAQDKAYQNAQVNSDRQNAKLEHDKALNRVVLELLSDHTELFKQFSDNPNFKRWLTDMVFDVTYQQNPAHGVEDVRMRALDIVRDRFDAAVVWSQAVDMLLDRLAAGGRNSLGIADLALIEETSGLSVSHVLFPVLNLLSAHDVGILNREFVRVGSTDTPQTMSFDEVRLLAQKDPEGDDWAECLSIRWALQDAQR | not soluble |
| MKPYERLLEHNIKPSMQRIAIMEYLMNHPIHPSADDIYTALSPSMPTLSKTTVYNTLRLFSEQGAALMLTIDEKNTNFDADTSVHSHFLCRYCGHIYDLKSPEAVKKVESLEMDGHQVTEVHYYYKGICKNCLRKDKETRID | not soluble |
| MKQDMWELRKIQSQGITDNAQYPAGTYIVFTAAAPYIPLFEQHGKDDIALSLVRHEEAWWIVNHSDELCCAVNEQVMEPHHRMRLNDGDTIEWGLSSWCLARTNDESRPDVSFPQLVQSSESVAEYLDLDWFKQQQLNPQNPFDIIPVRETASSYTGHEADSTLHQLYQEYQQALRPSGQEKPLRAKPFPRNEDAVTQDLTSLYDKKGDTDTLQDMVAGAPGIDAILDTLDTTGEGEMHWLAMESMPDILQLLSPELGGKTAHSEILPDLTRREHRIIGIDSHYRITPTQKNGNTAHEKN | not soluble |
